Measured values reported in patent publication US12180485B2, “Repressible control of gene expression” (TRUSTEES OF BOSTON UNIVERSITY, priority 2020, dated 2024).
Entries after “also recorded” stand apart in the source; their conditions may differ.

B1: 559/560: RfxCas13d split between residues 559/560; N and C fragments plain or fused to CID domains (protein)
chain 1: IEKKKSFAKGMGVKSTLVSGSKVYMTTFAEGSDARLEKIVEGDSIRSVNEGEAFSAEMADKNAGYKIGNAKFSHPKGYAVVANNPLYTGPVQQDMLGLKETLEKRYFGESADGNDNICIQVIHNILDIEKILAEYITNAAYAVNNISGLDKDIIGFGKFSTVYTYDEFKDPEHHRAAFNNNDKLINAIKAQYDEFDNFLDNPRLGYFGQAFFSKEGRNYIINYGNECYDILALLSGLRHWVVHNNEEESRISRTWLYNLDKNLDNEYISTLNYLYDRITNELTNSFSKNSAANVNYIAETLGINPAEFAEQYFRFSIMKEQKNLGFNITKLREVMLDRKDMSEIRKNHKVFDSIRTKVYTMMDFVIYRYYIEEDAKVAAANKSLPDNEKSLSEKDIFVINLRGSFNDDQKDALYYDEANRIWRKLENIMHNIKEFRGNKTREYKKKDAPRLPRILPAGRDVSAFSKLMYALTMFLDGKEINDLLTTLINKFDNIQSFLKVMPLIGVNAKFVEEYAFFKDSAKIADELRLIKSFARMGEPIADARRAMYIDAIRILGTNL
chain 2: SYDELKALADTFSLDENGNKLKKGKHGMRNFIINNVISNKRFHYLIRYGDPAHLHEIAKNEAVVKFVLGRIADIQKKQGQNGKNQIDRYYETCIGKDKGKSVSEKVDALTKIITGMNYDQFDKKRSVIEDTGRENAEREKFKKIISLYLTVIYHILKNIVNINARYVIGFHCVERDAQLYKEKGYDINLKKLEEKGFSSVTKLCAGIDETAPDKRKDVEKEMAERAKESIDSLESANPKLYANYIKYSDEKKAEEFTRQINREKAKTALNAYLRNTKWNVIIREDLLRIDNKTCTLFRNKAVHLEVARYVHAYINDIAEVNSYFQLYHYIMQRIIMNERYEKSSGKVSEYFDAVNDEKKYNDRLLKLLCVPFGYCIPRFKNLSIEALFDRNEAAKFDKEKKKVSGNS
B2: 655/656: RfxCas13d split pair at 655/656, plain or fused to CID domains (protein)
chain 1: IEKKKSFAKGMGVKSTLVSGSKVYMTTFAEGSDARLEKIVEGDSIRSVNEGEAFSAEMADKNAGYKIGNAKFSHPKGYAVVANNPLYTGPVQQDMLGLKETLEKRYFGESADGNDNICIQVIHNILDIEKILAEYITNAAYAVNNISGLDKDIIGFGKFSTVYTYDEFKDPEHHRAAFNNNDKLINAIKAQYDEFDNFLDNPRLGYFGQAFFSKEGRNYIINYGNECYDILALLSGLRHWVVHNNEEESRISRTWLYNLDKNLDNEYISTLNYLYDRITNELTNSFSKNSAANVNYIAETLGINPAEFAEQYFRFSIMKEQKNLGFNITKLREVMLDRKDMSEIRKNHKVFDSIRTKVYTMMDFVIYRYYIEEDAKVAAANKSLPDNEKSLSEKDIFVINLRGSFNDDQKDALYYDEANRIWRKLENIMHNIKEFRGNKTREYKKKDAPRLPRILPAGRDVSAFSKLMYALTMFLDGKEINDLLTTLINKFDNIQSFLKVMPLIGVNAKFVEEYAFFKDSAKIADELRLIKSFARMGEPIADARRAMYIDAIRILGTNLSYDELKALADTFSLDENGNKLKKGKHGMRNFIINNVISNKRFHYLIRYGDPAHLHEIAKNEAVVKFVLGRIADIQKKQGQNGKNQIDRYYETCIGK
chain 2: DKGKSVSEKVDALTKIITGMNYDQFDKKRSVIEDTGRENAEREKFKKIISLYLTVIYHILKNIVNINARYVIGFHCVERDAQLYKEKGYDINLKKLEEKGFSSVTKLCAGIDETAPDKRKDVEKEMAERAKESIDSLESANPKLYANYIKYSDEKKAEEFTRQINREKAKTALNAYLRNTKWNVIIREDLLRIDNKTCTLFRNKAVHLEVARYVHAYINDIAEVNSYFQLYHYIMQRIIMNERYEKSSGKVSEYFDAVNDEKKYNDRLLKLLCVPFGYCIPRFKNLSIEALFDRNEAAKFDKEKKKVSGNS
B3: SEQ ID NO: 793: inducible system polypeptide, probably Table 20 (GID-GAI) (protein)
chain: MLDLASLILIEKKKSFAKGMGVKSTLVSGSKVYMTTFAEGSDARLEKIVEGDSIRSVNEGEAFSAEMADKNAGYKIGNAKFSHPKGYAVVANNPLYTSGGSGSGSSGGSGTMAASDEVNLIESRTVVPLNTWVLISNFKVAYNILRRPDGTFNRHLAEYLDRKVTANANPVDGVFSFDVLIDRRINLLSRVYRPAYADQEQPPSILDLEKPVDGDIVPVILFFHGGSFAHSSANSAIYDTLCRRLVGLCKCVVVSVNYRRAPENPYPCAYDDGWIALNWVNSRSWLKSKKDSKVHIFLAGDSSGGNIAHNVALRAGESGIDVLGNILLNPMFGGNERTESEKSLDGKYFVTVRDRDWYWKAFLPEGEDREHPACNPFSPRGKSLEGVSFPKSLVVVAGLDLIRDWQLAYAEGLKKAGQEVKLMHLEKATVGFYLLPNNNHFHNVMDEISAFVNAECLDLASLIL
B4: SEQ ID NO: 796: inducible system polypeptide, probably Table 20 (GID-GAI) (protein)
chain: MAPKKKRKVGIHGVPAAKRDHHHHHHQDKKTMMMNEEDDGNGMDELLAVLGYKVRSSEMADVAQKLEQLEVMMSNVQEDDLSQLATETVHYNPAELYTWLDSMLTDLNSGGSGSGSSGGSGTSYDELKALADTFSLDENGNKLKKGKHGMRNFIINNVISNKRFHYLIRYGDPAHLHEIAKNEAVVKFVLGRIADIQKKQGQNGKNQIDRYYETCIGKDKGKSVSEKVDALTKIITGMNYDQFDKKRSVIEDTGRENAEREKFKKIISLYLTVIYHILKNIVNINARYVIGFHCVERDAQLYKEKGYDINLKKLEEKGFSSVTKLCAGIDETAPDKRKDVEKEMAERAKESIDSLESANPKLYANYIKYSDEKKAEEFTRQINREKAKTALNAYLRNTKWNVIIREDLLRIDNKTCTLFRNKAVHLEVARYVHAYINDIAEVNSYFQLYHYIMQRIIMNERYEKSSGKVSEYFDAVNDEKKYNDRLLKLLCVPFGYCIPRFKNLSIEALFDRNEAAKFDKEKKKVSGNSGSGPKKKRKV
B5: SEQ ID NO: 797: inducible system polypeptide, probably Table 20 (GID-GAI) (protein)
chain: MLDLASLILIEKKKSFAKGMGVKSTLVSGSKVYMTTFAEGSDARLEKIVEGDSIRSVNEGEAFSAEMADKNAGYKIGNAKFSHPKGYAVVANNPLYTGPVQQDMLGLKETLEKRYFGESADGNDNICIQVIHNILDIEKILAEYITNAAYAVNNISGLDKDIIGFGKFSTVYTYDEFKDPEHHRAAFNNNDKLINAIKAQYDEFDNFLDNPRLGYFGQAFFSKEGRNYIINYGNECYDILALLSGLRHWVVHNNEEESRISRTWLYNLDKNLDNEYISTLNYLYDRITNELTNSFSKNSAANVNYIAETLGINPAEFAEQYFRFSIMKEQKNLGFNITKLREVMLDRKDMSEIRKNHKVFDSIRTKVYTMMDFVIYRYYIEEDAKVAAANKSLPDNEKSLSEKDIFVINLRGSFNDDQKDALYYDEANRIWRKLENIMHNIKEFRGNKTREYKKKDAPRLPRILPAGRDVSAFSKLMYALTMFLDGKEINDLLTTLINKFDNIQSFLKVMPLIGVNAKFVEEYAFFKDSAKIADELRLIKSFARMGEPIADARRAMYIDAIRILGTNLSGGSGSGSSGGSGTMAASDEVNLIESRTVVPLNTWVLISNFKVAYNILRRPDGTFNRHLAEYLDRKVTANANPVDGVFSFDVLIDRRINLLSRVYRPAYADQEQPPSILDLEKPVDGDIVPVILFFHGGSFAHSSANSAIYDTLCRRLVGLCKCVVVSVNYRRAPENPYPCAYDDGWIALNWVNSRSWLKSKKDSKVHIFLAGDSSGGNIAHNVALRAGESGIDVLGNILLNPMFGGNERTESEKSLDGKYFVTVRDRDWYWKAFLPEGEDREHPACNPFSPRGKSLEGVSFPKSLVVVAGLDLIRDWQLAYAEGLKKAGQEVKLMHLEKATVGFYLLPNNNHFHNVMDEISAFVNAECLDLASLIL
B6: SEQ ID NO: 800: inducible system polypeptide, probably Table 20 (GID-GAI) (protein)
chain: MAPKKKRKVGIHGVPAAKRDHHHHHHQDKKTMMMNEEDDGNGMDELLAVLGYKVRSSEMADVAQKLEQLEVMMSNVQEDDLSQLATETVHYNPAELYTWLDSMLTDLNSGGSGSGSSGGSGTALADTFSLDENGNKLKKGKHGMRNFIINNVISNKRFHYLIRYGDPAHLHEIAKNEAVVKFVLGRIADIQKKQGQNGKNQIDRYYETCIGKDKGKSVSEKVDALTKIITGMNYDQFDKKRSVIEDTGRENAEREKFKKIISLYLTVIYHILKNIVNINARYVIGFHCVERDAQLYKEKGYDINLKKLEEKGFSSVTKLCAGIDETAPDKRKDVEKEMAERAKESIDSLESANPKLYANYIKYSDEKKAEEFTRQINREKAKTALNAYLRNTKWNVIIREDLLRIDNKTCTLFRNKAVHLEVARYVHAYINDIAEVNSYFQLYHYIMQRIIMNERYEKSSGKVSEYFDAVNDEKKYNDRLLKLLCVPFGYCIPRFKNLSIEALFDRNEAAKFDKEKKKVSGNSSGSGPKKKRKV

Columns and labels:
mCherry = mCherry knockdown by inducible split RfxCas13d (ON switch) in transfected HEK 293 FT cells, flow cytometry; format: cell-based; conditions: for performance after NES/NLS compartmentalization: GIB induced split pairs, NES on one moiety, NLS on the other; for knockdown across the various CID systems: split pairs coupled with CID domains, with inducer
[1] = system: mCherry expression in HEK293 FT cells; assay: Inducible split RfxCas13d (GIB, RAP, ABA, Dano, GRZ CID domains; NES/NLS variants) mCherry knockdown, leakiness and inducibility; format: cell-based; conditions: inducible polypeptide systems of Tables 18-22
Procedure, shortened: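 mCherry knockdown in HEK293 FT cells by split RfxCas13d halves fused to GIB, RAP, ABA, Dano or GRZ dimerization domains, scored with and without inducer. Leakiness score and induced activity were derived per split site; NES/NLS compartmentalization and reversed CID orientation were also tested.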

Molecule | performance after NES/NLS compartmentalization (mCherry) | knockdown across the various CID systems (mCherry) | performance in the tested conditions [1] | also measured
B1 | high inducibility with minimal leakiness | efficient knockdown; also recorded: consistently strong drug-induced knockdown |  | induced knockdown (mCherry; Danoprevir-inducible, 2 NESs on N terminal moiety and 2 NLSs on C terminal moiety): over 60%; performance of reversed CID orientation versus original orientation (mCherry; GIB: N ss-GAI/GID-ss C, ABA: N ss-PYL/ABI-ss C): stronger inducibility and weaker leakiness; target knockdown efficiency (mCherry; split pair): more than 80%
B2 | high inducibility with minimal leakiness | efficient knockdown; also recorded: consistently strong drug-induced knockdown |  | 
B3 |  |  | highest performance | 
B4 |  |  | highest performance | 
B5 |  |  | highest performance | 
B6 |  |  | highest performance | 
